In paper PMC7601681, “Human Serum Albumin Binds Native Insulin and Aggregable Insulin Fragments and Inhibits Their Aggregation” (Biomolecules, 2020):
Residues, ends and D or L forms follow the SMILES beside them. *: point of attachment. Butanoyl(4-pyren-1-yl) = O=C(CCCc1ccc2ccc3cccc4ccc1c2c34)*

Key:
HSA [1] = target: T1, HSA (Homo sapiens, UniProt P02768); assay: Time-resolved fluorescence decay of the pyrene label in the presence of HSA; type: binding; settings: for <τ> average fluorescence lifetime / A1 (amplitude of fast component, aggregate fraction) / A2 (amplitude of slow component, monomer) / τ1 (fast component, aggregate form) / τ2 (slow component, monomer form): 30 μM HSA in PBS, [Py-Ins] 16.38 μM, λem 405 nm; for <τ> average fluorescence lifetime: Equation (2); for A1 (amplitude of fast component, aggregate fraction) / A2 (amplitude of slow component, monomer) / τ1 (fast component, aggregate form) / τ2 (slow component, monomer form): bi-exponential fit
T1 construct: purchased Sigma-Aldrich
Protocol: The solutions of HSA (concentration = 3 10^−5 M) were prepared by dissolving the protein in 0.01 M of phosphate buffer saline (PBS, [NaCl] = 150 mM), pH = 7.2. […] The prepared samples were used within 24 h. […] In order to ensure complete protein hydration, the solutions were stored at room temperature for at least 1 h before measurements. The samples for fluorescence measurements were saturated with argon or deaerated with a vacuum pump.
Time-resolved measurements of HSA fluorescence were performed using a flash photolysis system based on a GL-3300 nitrogen laser (Photon Technology International, Birmingham, NJ, USA) providing single light pulses with a wavelength of 337.1 nm, duration ~800 ps, and average energy 100 µJ. The detection system consisted of a Baush&Lomb monochromator (Rochester, NY, USA), Hamamatsu 1P28 photomultiplier, and a PS325 power supply system (Stanford Research, Sunnyvale, CA, USA). […] All experiments were carried out at room temperature (25 ± 1 °C) using quartz cells with an optical length of 1 cm.

[2] = Solubility and aggregation of pyrene-labeled peptides seen by absorption and fluorescence; settings: for solubility in ethanol and methanol: judged from narrow absorption bands
Protocol: The solutions of HSA (concentration = 3 10^−5 M) were prepared by dissolving the protein in 0.01 M of phosphate buffer saline (PBS, [NaCl] = 150 mM), pH = 7.2. […] The prepared samples were used within 24 h. […] The concentration of HSA was verified spectrophotometrically using the molar absorption coefficient 35500 M^−1cm^−1 at 280 nm for HSA [61]. In order to ensure complete protein hydration, the solutions were stored at room temperature for at least 1 h before measurements. The samples for fluorescence measurements were saturated with argon or deaerated with a vacuum pump.
The absorbances of Py-LYQLENY and Py-VEALYL were determined in 10 mM standard PBS solution, ethanol, methanol, and 10 mM TX-100. The spectra were normalized to a maximum of S0→S2 […]
band (Figure 4, panel I).
(1 picture or pasted object on this page, not shown here)
Fig. S7. Panel I: Normalized absorption spectra of Py-LYQLENY (a) and Py-VEALYL (b) in different solvents. Panel II: Normalized emission spectra of Py-LYQLENY (a) and Py-VEALYL (b) in different […]
We also investigated the solubility of Py-LYQLENY conjugate (2) in dioxane.
This allowed the molar coefficient absorbance to be determined, using the gravimetric […]
The addition of a small amount of concentrated
Py-LYQLENY stock solution in dioxane to the buffer solution enabled the molar absorbance coefficient […]
In order to investigate the possible aggregation of the fluorescence labeled insulin hot spots in the buffer solution, spectrophotometric titration was performed for Py -LYQLENY (2) in a range of concentration from 2.9 to 56.4 µM. Titration was carried out until there were no significant changes in fluorescence intensity.
The fluorescence spectra were recorded for each concentration (Figure 5a). After normalization of the […]
Fig. S8. Fluorescence spectra of Py-LYQLENY in PBS solutions recorded for the given probe

HSA [3] = target: T1, HSA; assay: Quenching of pyrene fluorescence by acrylamide (Stern-Volmer) in buffer and HSA solution; type: binding; settings: [HSA] 30 µM, Stern-Volmer plots
Protocol: Additionally, we examined the quenching of Py-LYQLENY and Py-VEALYL by acrylamide (ACR) in the buffer solution and HSA solution (Figure 5 Stern-Volmer plots).
Figure 5 Stern–Volmer plots for quenching of Py-LYQLENY and Py-VEALYL by ACR in the buffer and HSA solution. I0 is fluorescence intensity without quencher, I—fluorescence intensity at various concentrations of ACR, [HSA] = 30 µM.

[4] = Time-resolved fluorescence decay of the pyrene label in buffer or TX-100 (no protein); type: physicochemical; settings: λexc 337 nm; for <τ> average fluorescence lifetime / A1 (amplitude of fast component, aggregate fraction) / A2 (amplitude of slow component, monomer) / τ1 (fast component, aggregate form) / τ2 (slow component, monomer form): [Py-Ins] 16.38 μM, λem 405 nm; for <τ> average fluorescence lifetime: Equation (2); for A1 (amplitude of fast component, aggregate fraction) / A2 (amplitude of slow component, monomer) / τ1 (fast component, aggregate form) / τ2 (slow component, monomer form): bi-exponential fit
HSA [5] = target: T1, HSA; assay: Steady-state fluorescence titration with HSA (binding constant Kb); settings: Py-LYQLENY 3 µM in buffer, fluorescence intensity as function of HSA concentration (plateau at 45 µM), Equation (3)
Protocol: The prepared samples were used within 24 h.
Steady-state absorption and fluorescence spectra were recorded at a resolution of 0.5 nm using an Aminco Bowman AB2 Series spectrofluorometer (Thermo Fisher Scientific Inc., Waltham, MA, USA). Unless otherwise indicated, in emission measurements, the excitation wavelength was 337 nm, and excitation and emission slits were set to 2.0 and 0.5 nm, respectively.
For Py-LYQLENY conjugate (2), the binding constants Kb were calculated according to Equation (3) proposed by Kuzmin et al.:θ = Kb·[HSA] / (1+ Kb·[HSA])(3) where [HSA] is the concentration of the albumin [61], θ = (I − I0)/(I∞ − I0) is the fraction of the pyrene probe bound with HSA, I0 is fluorescence intensity without HSA, I∞ is fluorescence intensity with [HSA] = 45 µM (reaching a plateau, Figure 6b) and I is the fluorescence intensity for subsequent […].
The calculated value also confirmed existence of interactions between 2 and HSA with pyrene fragment presented on less polar environment inside protein. […] The binding constants 1.5 ± 0.3 × 10^6 dm^3 mol^−1 to 6.5 ± 0.4 × 10^7 dm^3 mol^−1 were calculated for complexes of HSA with Py-hydrophobic peptide.

[6] = Absorption spectra of the filtered HSA/Py-Ins complex on storage; type: physicochemical; settings: [Py-Ins] 16.38 μM, [HSA] 30 μM, filtered through 0.2 µm syringe filter, spectra after 2, 4 and 6 days
Protocol: Broad absorption bands can indicate the presence of Py-Ins aggregates. Therefore, a solution of Py-Ins (1) complex with HSA was filtered through a 0.2 µm syringe filter in order to remove any Py-Ins aggregates, and the stability of the complex was tested for a further 6 days. […] This may indicate that the Py-Ins (1) conjugate was completely bound to the HSA, and that the protein has a protective role in the aggregation process. Additional confirmation of this was provided by the observed linear increase in Py-Ins absorbance for the samples diluted with 30 µM HSA solution (Figure 2, panel IIb).

Question: For `CC(C)C[C@H](NC(=O)[C@H](Cc1ccc(O)cc1)NC(=O)[C@H](CC(C)C)NC(=O)[C@H](C)NC(=O)[C@H](CCC(=O)O)NC(=O)[C@@H](NC(=O)CCCc1ccc2ccc3cccc4ccc1c2c34)C(C)C)C(=O)O` [Py-VEALYL, Py-VEALYL-OH] ({Butanoyl(4-pyren-1-yl)}-VEALYL-OH), which “τHSA, lifetime of fluorescence decay in the presence of HSA” value (HSA [1]; [HSA] 30 μM, bi-exponential kinetics, average lifetime by Equation (2), λexc 337 nm, λem 400 nm) is on record?
Answer: 153.9 ns

Question: And the “solubility in aqua media in the presence of HSA” value [2]?
Answer: increased significantly

Question: What about the “aggregation in buffer solution” value ([2]; 0.01 M PBS, 150 mM NaCl, pH 7.2) of the same molecule?
Answer: partial aggregation

Question: What about the “solubility in ethanol and methanol” value [2] of the same molecule?
Answer: good

Question: What about the “quenching by acrylamide in the presence of HSA versus buffer (slope of I0/I vs. ACR concentration)” value (HSA [3]) of the same molecule?
Answer: protected against interaction with the quencher

Question: What about the “τPBS, lifetime of fluorescence decay in PBS” value ([4]; PBS, mono-exponential kinetics, λem 400 nm, short lifetime taken as sign of aggregation) of the same molecule?
Answer: 43.9 ns

Question: For `CC(C)C[C@H](NC(=O)CCCc1ccc2ccc3cccc4ccc1c2c34)C(=O)N[C@@H](Cc1ccc(O)cc1)C(=O)N[C@@H](CCC(N)=O)C(=O)N[C@@H](CC(C)C)C(=O)N[C@@H](CCC(=O)O)C(=O)N[C@@H](CC(N)=O)C(=O)N[C@@H](Cc1ccc(O)cc1)C(=O)O` [Py-LYQLENY, Py-LYQLENY-OH] ({Butanoyl(4-pyren-1-yl)}-LYQLENY-OH), which “binding constant Kb” value (HSA [5]) is on record?
Answer: 2 × 10^5 dm^3 mol^−1

Question: What about the “solubility in aqua media in the presence of HSA” value [2] of the same molecule?
Answer: increased significantly

Question: And the solubility in dioxane [2]?
Answer: dissolved relatively well

Question: And the “solubility in the buffer solution compared with dioxane” value ([2]; PBS)?
Answer: lower

Question: And the “solubility in ethanol and methanol” value [2]?
Answer: good

Question: What does the source list for “Py-Ins: derivative of human insulin labeled with 4-(1-pyrene)butyric acid”?
Answer: <τ> average fluorescence lifetime (HSA [1]; filtered, λexc 337 nm): 145.6 ns; A1 (amplitude of fast component, aggregate fraction) (HSA [1]; filtered, λexc 337 nm): 0.2; A2 (amplitude of slow component, monomer) (HSA [1]; filtered, λexc 337 nm): 0.8; τ1 (fast component, aggregate form) (HSA [1]; filtered, λexc 337 nm): 19.4 ns; τ2 (slow component, monomer form) (HSA [1]; filtered, λexc 337 nm): 150.4 ns; <τ> average fluorescence lifetime (HSA [1]; non-filtered, λexc 337 nm): 133.6 ns; A1 (amplitude of fast component, aggregate fraction) (HSA [1]; non-filtered, λexc 337 nm): 0.4; A2 (amplitude of slow component, monomer) (HSA [1]; non-filtered, λexc 337 nm): 0.6; τ1 (fast component, aggregate form) (HSA [1]; non-filtered, λexc 337 nm): 19.1 ns; τ2 (slow component, monomer form) (HSA [1]; non-filtered, λexc 337 nm): 143.8 ns; aggregate fraction (HSA [1]; diluted Py-Ins/HSA solutions, [Py-Ins]/[HSA] = 0.11, data not shown): about 20%; stability of the HSA complex / aggregation: changes of absorption spectra on storage [6]: no changes were observed; <τ> average fluorescence lifetime ([4]; 20 mM TX-100, filtered): 161.2 ns; A1 (amplitude of fast component, aggregate fraction) ([4]; 20 mM TX-100, filtered): 0.1; A2 (amplitude of slow component, monomer) ([4]; 20 mM TX-100, filtered): 0.9; τ1 (fast component, aggregate form) ([4]; 20 mM TX-100, filtered): 18.2 ns; τ2 (slow component, monomer form) ([4]; 20 mM TX-100, filtered): 162.0 ns; <τ> average fluorescence lifetime ([4]; 20 mM TX-100, non-filtered): 147.9 ns; A1 (amplitude of fast component, aggregate fraction) ([4]; 20 mM TX-100, non-filtered): 0.2; A2 (amplitude of slow component, monomer) ([4]; 20 mM TX-100, non-filtered): 0.8; τ2 (slow component, monomer form) ([4]; 20 mM TX-100, non-filtered): 152.7 ns; A1 (amplitude of fast component, aggregate fraction) ([4]; PBS buffer, filtered): 0.2; A2 (amplitude of slow component, monomer) ([4]; PBS buffer, filtered): 0.8; τ1 (fast component, aggregate form) ([4]; PBS buffer, filtered): 20.1 ns; τ2 (slow component, monomer form) ([4]; PBS buffer, filtered): 98.8 ns; <τ> average fluorescence lifetime ([4]; PBS buffer, non-filtered): 86.6 ns; A1 (amplitude of fast component, aggregate fraction) ([4]; PBS buffer, non-filtered): 0.5; A2 (amplitude of slow component, monomer) ([4]; PBS buffer, non-filtered): 0.5; τ2 (slow component, monomer form) ([4]; PBS buffer, non-filtered): 98.4 ns
